The values below come from patent publication US20150266977A1 (AbbVie / Abbott, published 2015).

Sequences and labels used below:
T1: recombinant human sclerostin (human, UniProt Q9BQB4 24-213)
T1 construct: biotinylated in the ELISAs; also called hu sclerostin; hu scl
T1 sequence: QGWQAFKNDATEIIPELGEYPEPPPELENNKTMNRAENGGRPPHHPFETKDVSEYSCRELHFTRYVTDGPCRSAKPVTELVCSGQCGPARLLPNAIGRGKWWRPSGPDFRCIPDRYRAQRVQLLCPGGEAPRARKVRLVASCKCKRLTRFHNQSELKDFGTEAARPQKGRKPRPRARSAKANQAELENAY

T2: recombinant rat sclerostin (rat, UniProt Q99P67 24-213, limits assumed)
T2 sequence (looked up): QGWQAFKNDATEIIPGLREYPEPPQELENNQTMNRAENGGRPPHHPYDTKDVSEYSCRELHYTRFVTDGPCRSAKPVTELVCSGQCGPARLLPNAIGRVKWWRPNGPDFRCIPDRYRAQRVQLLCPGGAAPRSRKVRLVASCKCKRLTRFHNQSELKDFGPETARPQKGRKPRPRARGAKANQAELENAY

T3: recombinant mouse sclerostin (mouse, UniProt Q99P68 24-211)
T3 construct: also called ms sclerostin; murine sclerostin
T3 sequence (looked up): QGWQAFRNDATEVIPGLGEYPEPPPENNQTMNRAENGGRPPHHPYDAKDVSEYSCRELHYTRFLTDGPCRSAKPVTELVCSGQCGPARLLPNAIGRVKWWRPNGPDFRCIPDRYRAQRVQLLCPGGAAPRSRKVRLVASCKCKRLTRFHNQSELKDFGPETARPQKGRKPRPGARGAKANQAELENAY

B1: MSL10-AM3 (antibody, V domains shown)
VH: EVQLVESGGGLVQPGRSLRLSCAASGFTFDDYALHWVRQAPGKGLEWVSGIGWDEDMIDYADSVKGRFTISRDNAKNSLYLQMNSLRVEDTALYYCAGNNRGYGGLDVWGQGTTVTVSS
VL: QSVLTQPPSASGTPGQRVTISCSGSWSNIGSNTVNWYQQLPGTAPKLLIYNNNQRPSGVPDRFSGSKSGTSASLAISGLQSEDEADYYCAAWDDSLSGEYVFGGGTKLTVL
B2: MSL10-AM2 (antibody, V domains shown)
VH: B1 VH with D54E, E55D, N100S
VL: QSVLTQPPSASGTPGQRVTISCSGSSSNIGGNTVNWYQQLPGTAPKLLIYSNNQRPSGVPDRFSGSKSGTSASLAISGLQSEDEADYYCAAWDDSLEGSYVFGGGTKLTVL
B3: MSL10-AM4 (antibody, V domains shown)
VH: B1 VH with D30E, E55D
VL: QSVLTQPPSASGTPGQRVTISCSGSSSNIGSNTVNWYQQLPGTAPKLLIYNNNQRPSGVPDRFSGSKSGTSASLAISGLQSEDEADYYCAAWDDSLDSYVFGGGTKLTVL
B4: MSL10-AM1 (antibody, V domains shown)
VH: B1 VH with G52N, D54E, E55G, M57D, N100S
VL: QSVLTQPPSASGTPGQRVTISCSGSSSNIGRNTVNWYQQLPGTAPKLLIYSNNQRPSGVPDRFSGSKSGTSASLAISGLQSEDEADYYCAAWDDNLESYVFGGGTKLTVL
B5: MSL10-AM9 (antibody, V domains shown)
VH: B1 VH with E55D
VL: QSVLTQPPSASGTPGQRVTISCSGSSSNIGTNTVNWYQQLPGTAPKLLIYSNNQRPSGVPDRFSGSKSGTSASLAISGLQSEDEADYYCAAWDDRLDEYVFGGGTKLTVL
B6: MSL10-AM8 (antibody, V domains shown)
VH: B1 VH with D30E, E55R, M57F, N100K, R101I
VL: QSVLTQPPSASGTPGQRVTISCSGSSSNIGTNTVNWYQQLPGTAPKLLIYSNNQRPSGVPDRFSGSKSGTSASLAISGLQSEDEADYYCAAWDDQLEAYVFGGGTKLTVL
B7: MSL10-AM7 (antibody, V domains shown)
VH: B1 VH with D30E, D54N, E55D, M57E, A75S
VL: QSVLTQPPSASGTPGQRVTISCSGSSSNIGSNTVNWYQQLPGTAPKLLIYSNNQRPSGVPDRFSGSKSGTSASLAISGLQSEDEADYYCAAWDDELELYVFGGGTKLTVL
B8: MSL10-AM6 (antibody, V domains shown)
VH: B1 VH with D31Q, G52N, E55G, M57Y, N100I
VL: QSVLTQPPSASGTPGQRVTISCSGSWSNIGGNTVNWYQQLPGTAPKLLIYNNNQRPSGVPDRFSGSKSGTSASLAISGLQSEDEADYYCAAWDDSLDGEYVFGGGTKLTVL
B9: MSL10-AM10 (antibody, V domains shown)
VH: B1 VH with D30S, G52S, D54Y, E55G, M57D, N100I
VL: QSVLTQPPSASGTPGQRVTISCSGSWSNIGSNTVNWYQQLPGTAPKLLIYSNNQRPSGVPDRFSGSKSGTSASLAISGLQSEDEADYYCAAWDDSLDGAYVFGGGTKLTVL
B10: MSL10-AM11 (antibody, V domains shown)
VH: B1 VH with G52S, D54H, E55G, M57F
VL: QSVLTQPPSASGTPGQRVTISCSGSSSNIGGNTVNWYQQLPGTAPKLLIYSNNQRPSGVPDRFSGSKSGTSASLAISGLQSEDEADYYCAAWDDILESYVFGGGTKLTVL

Positions count from the first letter of the chain named.

The first assay has as its target T4, recombinant cynomolgus monkey sclerostin (cynomolgus monkey).
T4 construct: also called cyno sclerostin; Cyno sclerostin
The assay can be described thus: SPR. As to the method: (§1) Approximately 10,000 RU (or 3000 RU when CM3 chip was used) of goat anti-mouse or anti-human IgG (Fcγ) fragment specific polyclonal antibody (Pierce Biotechnology Inc, Rockford, Ill.) diluted in 10 mM sodium acetate (pH 4.5) was directly immobilized across a CM5 (or CM3) research grade biosensor chip using a standard amine coupling kit according to manufacturer's instructions and procedures at 15 μg/ml. Unreacted moieties on the biosensor surface were blocked with ethanolamine. Modified carboxymethyl dextran surface in flowcells 2, 3 and 4 were used as a reaction surface. Modified carboxymethyl dextran in flow cell 1 was used as the reference surface. Biaevaluation T100 software version 2.0.2, GE Healthcare Life Sciences was used to simultaneously fit association and dissociation phases of all injections (using 1:1 fit analysis with local Rmax). Purified antibodies were diluted in running buffer for capture across goat anti-mouse or anti-human IgG specific reaction surfaces. Antibodies to be captured as a ligand (1 μg/ml) were injected over reaction matrices at a flow rate of 10 μl/minute. The association and dissociation rate constants, kon (unit M-1 s-1) and koff (unit s-1) were determined under a continuous flow rate of 50 μl/minute. […] At the end of each cycle the surfaces were regenerated with 10 s injection of 50 mM NaOH or/and by 10 s injection of 10 mM Glycine pH1.5 at a flow rate of 100 μl/min. Instrument appropriate Biaevaluation software, GE Healthcare Life Sciences was used to simultaneously fit association and dissociation constants as well as KD (using 1:1 global fit analysis with local Rₘₐₓ). Binding was recorded as a function of time and kinetic rate constants are calculated. In this assay, on-rates as fast as 10⁷ M⁻¹ s⁻¹ and off-rates as slow as 10⁻⁶ s⁻¹ can be measured.
On the technique in general: Surface plasmon resonance follows binding to a sensor surface in real time, without labels.
On to B1, for which the Kd amounted to 1.3 nM, the off-rate constant (koff) amounted to 0.0001 s⁻¹ and the association rate constant (kon) is 77000 M⁻¹ s⁻¹.

For the molecule B2, the equilibrium dissociation constant (Kd) worked out at 0.77 nM, the koff came to 8.8e-05 s⁻¹ and the kon worked out at 110000 M⁻¹ s⁻¹.

Regarding B3, the Kd worked out at 5.6 nM, the koff was 0.00073 s⁻¹ and the on-rate (kon) amounted to 130000 M⁻¹ s⁻¹.

For the molecule B4, the dissociation constant (Kd) came out at 0.42 nM, the koff was 2.3e-05 s⁻¹ and the kon came out at 54000 M⁻¹ s⁻¹.

The target in another assay is T1, recombinant human sclerostin. The assay can be described thus: SPR. As to the method: as §1
For B5, the Kd was found to be 0.054 nM, the koff worked out at 5.2e-06 s⁻¹ and the association rate constant (kon) stood at 96000 M⁻¹ s⁻¹.

Turning to B1, the dissociation constant Kd turned out to be 0.9 nM, the koff came to 7.6e-05 s⁻¹ and the association rate constant (kon) is 84000 M⁻¹ s⁻¹.

For the molecule B6, the Kd was 0.73 nM, the koff is 7.7e-05 s⁻¹ and the kon is 110000 M⁻¹ s⁻¹.

On to B2, for which the equilibrium dissociation constant (Kd) came to 0.065 nM, the koff was 7.6e-06 s⁻¹ and the kon stood at 120000 M⁻¹ s⁻¹.

In the case of B3, the Kd is 5.3 nM, the dissociation rate constant (koff) is 0.00073 s⁻¹ and the kon was found to be 140000 M⁻¹ s⁻¹.

As to B7, the equilibrium dissociation constant (Kd) stood at 0.42 nM, the koff worked out at 7.2e-05 s⁻¹ and the on-rate constant (kon) came out at 170000 M⁻¹ s⁻¹.

As to B8, the Kd was found to be 3.4 nM, the dissociation rate constant (koff) was 0.00055 s⁻¹ and the kon worked out at 170000 M⁻¹ s⁻¹.

On to B9, for which the equilibrium dissociation constant (Kd) turned out to be 0.29 nM, the koff was found to be 3.9e-05 s⁻¹ and the kon came to 130000 M⁻¹ s⁻¹.

Consider B10, for which the Kd was 0.85 nM, the koff stood at 7.4e-05 s⁻¹ and the kon stood at 88000 M⁻¹ s⁻¹.

Consider B4, for which the dissociation constant Kd was found to be 0.3 nM, the off-rate constant (koff) was determined as 1.6e-05 s⁻¹ and the kon stood at 52000 M⁻¹ s⁻¹.

Another assay concerns the target T2, recombinant rat sclerostin. The assay is described as follows: SPR.
Take B5: the binding result is reported as “no binding”.

In the case of B1, the binding result is on record as “no binding”.

For the molecule B6, the binding result is reported as “no binding”.

On to B2, for which the binding result is recorded as “no binding”.

Take B3: the binding result is recorded as “no binding”.

B7: the binding result is listed as “no binding”.

On to B8, for which the binding result is “no binding”.

For the molecule B9, the binding result was “no binding”.

For the molecule B10, the binding result was “no binding”.

Regarding B4, the binding result is “no binding”.

The next assay has as its target T3, recombinant mouse sclerostin. The assay can be described thus: SPR.
B5: the binding result was “no binding”.

For B1, the binding result was “no binding”.

Regarding B6, the binding result is given as “no binding”.

On to B2, for which the binding result is “no binding”.

Consider B3, for which the binding result is “no binding”.

With B7, the binding result is on record as “no binding”.

Take B8: the binding result was “no binding”.

Consider B9, for which the binding result is listed as “no binding”.

As for B10, the binding result is reported as “no binding”.

B4: the binding result is listed as “no binding”.

One may read the Kd as the free concentration of one partner at which half of the binding sites on the other are occupied at equilibrium, for simple one-to-one binding. What is called koff is the first-order rate constant of dissociation. A word on the kon: it is the second-order rate constant of association.
